Laboratory results taken from IntAct's records for PubMed 29039417.

B1: Isoform 2 of Bardet-Biedl syndrome 7 protein (Homo sapiens), Q8IWZ6-2 (parent)
chain: MDLILNRMDYLQVGVTSQKTMKLIPASRHRATQKVVIGDHDGVVMCFGMKKGEAAAVFKTLPGPKIARLELGGVINTPQEKIFIAAASEIRGFTKRGKQFLSFETNLTESIKAMHISGSDLFLSASYIYNHYCDCKDQHYYLSGDKINDVICLPVERLSRITPVLACQDRVLRVLQGSDVMYAVEVPGPPTVLALHNGNGGDSGEDLLFGTSDGKLALIQITTSKPVRKWEIQNEKKRGGILCIDSFDIVGDGVKDLLVGRDDGMVEVYSFDNANEPVLRFDQMLSESVTSIQGGCVGKDSYDEIVVSTYSGWVTGLTTEPIHKESGPGEELKINQEMQNKISSLRNELEHLQYKVLQERENYQQSSQSSKAKSAVPSFGINDKFTLNKDDASYSLILEVQTAIDNVLIQSDVPIDLLDVDKNSAVVSFSSCDSESNDNFLLATYRCQADTTRLELKIRSIEGQYGTLQAYVTPRIQPKTCQVRQYHIKPLSLHQRTHFIDHDRPMNTLTLTGQFSFAEVHSWVVFCLPEVPEKPPAGECVTFYFQNTFLDTQLESTYRKGEGVFKSDNISTISILKDVLSKEATKRKINLNISYEINEVSVKHTLKLIHPKLEYQLLLAKKVQLIDALKELQIHEGNTNFLIPEYHCILEEADHLQEEYKKQPAHLERLYG
partner: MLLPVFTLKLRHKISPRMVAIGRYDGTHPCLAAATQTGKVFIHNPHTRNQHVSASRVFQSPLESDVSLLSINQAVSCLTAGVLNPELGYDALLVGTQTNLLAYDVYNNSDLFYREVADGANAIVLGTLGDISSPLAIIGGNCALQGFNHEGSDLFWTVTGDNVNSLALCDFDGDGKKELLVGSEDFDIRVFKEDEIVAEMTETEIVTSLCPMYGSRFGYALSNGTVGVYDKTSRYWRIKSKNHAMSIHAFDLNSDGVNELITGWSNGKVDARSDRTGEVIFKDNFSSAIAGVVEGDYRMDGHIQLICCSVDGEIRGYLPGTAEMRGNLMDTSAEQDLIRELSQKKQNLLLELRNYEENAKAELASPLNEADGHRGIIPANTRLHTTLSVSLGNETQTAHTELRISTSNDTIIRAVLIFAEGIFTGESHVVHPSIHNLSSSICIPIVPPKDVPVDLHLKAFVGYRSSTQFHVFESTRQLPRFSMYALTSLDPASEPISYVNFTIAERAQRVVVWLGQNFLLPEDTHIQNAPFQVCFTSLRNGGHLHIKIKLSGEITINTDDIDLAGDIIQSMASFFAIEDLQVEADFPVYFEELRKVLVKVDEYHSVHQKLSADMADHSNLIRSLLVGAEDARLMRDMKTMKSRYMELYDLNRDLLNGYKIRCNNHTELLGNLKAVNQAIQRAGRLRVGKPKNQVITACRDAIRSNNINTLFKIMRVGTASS

Variants of: B1
Settings: with bbs2_human BBS2, Q9BXC9

Effect of a mutation on the interaction, with no effect:
S430K
S430E
F440K
F440E
F440A
T444K
T444E
T444A
I409K
I409A
I409E
Q464A
Q464E
Q464K
T451K
T451A
T451E
V426A
V426E
V426K
L417A
L417E
L417K
D412E
D412K
D412A
K422A
K422E
Y465A
R453K
R453A
R453E
Y445A
Y445K
Y445E
G463E
G463A
G463K
L408E
L408A
L408K
A425E
A425K
V413E
V413K
V413A
